The target in assay [1] is feline FAP in formalin fixed, paraffin embedded feline tissue sections (feline). Briefly: immunohistochemistry on a formalin fixed, paraffin embedded kidney section of cat #20-01692 with a low level of fibrosis (fibrosis score 1).
Assay [2] has the same target. Briefly: immunohistochemistry on a formalin fixed, paraffin embedded kidney section of cat #20-00774 with a higher level of fibrosis (fibrosis score 3).
Assay [3] shares this target. Briefly: immunohistochemistry on a formalin fixed, paraffin embedded kidney section of cat #20-10270 without fibrosis (fibrosis score 0); the score tells that no FAP was detected in this tissue, not that the antibody fails to bind FAP.
The target is the same in assay [4]. The assay can be described thus: immunohistochemistry on a formalin fixed, paraffin embedded kidney section of cat #20-06613 with a higher level of fibrosis (fibrosis score 3).

Regarding “cross-reactive anti-FAP monoclonal antibody ab207178 from abcam”, the FAP score (0-3) stood at 1 in assay [1], 2 in assay [2], 0 in assay [3] and 2 in assay [4].

The values above are taken from US20250002998A1.
